Target: OB-RL(wt)
Assay: cell-based or functional assay

- Reporter Activity (GT1-7 cells, leptin +; 3041 without leptin): 27000
- Reporter Activity (cells co-transfected with 84569 cDNA, leptin +; 4146 without leptin): 7600
- Reporter Activity (cells co-transfected with control vector, leptin +; 4316.5 without leptin): 25000
Substance: Leptin (ligand)

Source: patent US20040067513A1
